# The nanobody polyreactivity screen of Harvey et al. (2022)
# Test: yeast display, Sf9 membrane polyspecificity reagent, FACS + sequencing; frameworks hold sequencing errors
# Procedure, shortened: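 A synthetic nanobody library was expressed on Saccharomyces cerevisiae BJ5465 by galactose induction for 36–48 hours. The library was stained for 1 hour at 4 °C with 10% biotinylated, detergent-solubilized Sf9 membrane reagent and enriched with streptavidin microbeads before FACS. Low and high (top ~1%) gates were set on anti-HA fluorescence for expression and streptavidin fluorescence for reagent binding, and each polyreactivity label reflects the gate of origin.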
row,Sequence,polyreactivity (PSR sort gate)
1,QVQLVESGGGLVQAGGSLRLSCAASGRTFRFTAMGWYRQAPGKERELVAAISFRGGSTYYADSVKGRFTISRDNAKNTVYLQMNSLKPEDTAVYYCAARARTGTYRDMYYWGQGTQVTVSS,high polyreactivity
2,QVQLVESGGGLVQAGGSLRLSCAASGRTFRFYAMGWYRQAPGKERELVAAISSGGSTYYADSVKGRFTISRDNAKNTVYLQLNSLKAEDTAVYYCAVKQRDKFAGGRNDYWGQGTQVTVSS,high polyreactivity
3,QVQLVESGGGLVQAGGSLRLSCAASGRTFRFYAMGWYRQAPGKERELVAAISYSGGSTYYADSVKGRFTISRDNAKNTVYLQMNSLKPEDTAVYYCNARYRLGSPVGYNYYTGYDYWGQGTQVTVSS,high polyreactivity
4,QVQLVESGGGLVQAGGSLRLSCAASGRTFRFYAMGWYRQAPGKERELVASISSSGGSTYYADSVKGRFTISRDNAKNTVYLQMNSLKPEDTAVYYCNADVTNWEDDYYYWGQGTQVTVSS,high polyreactivity
5,QVQLVESGGGLVQAGGSLRLSCAASGRTFRGNAMGWYRQAPGKERELVAAGGSTYYADSVKGRFTISRDNAKNTVYLQINSLKPEDTAVYYCAAALGFSRYSWFCYGYWGQGTQVTGSS,low polyreactivity
6,QVQLVESGGGLVQAGGSLRLSCAASGRTFRGNAMGWYRQAPGKERELVAAISWRGTSTYYADSVKGRFTISRDNAKNTVYLQMNSLKPEDTAVYYCNTQRQLGERFYDRSRQGDYWGQGTQVTVSS,high polyreactivity
7,QVQLVESGGGLVQAGGSLRLSCAASGRTFRGNAMGWYRQAPGKESELVAVITASGSTTYADSVKGRFTISRDNAKNTVYLQMNSLKPEDTAVYYCAKYVPWYTLWLGGTDRDYWGQGTQVTVSS,low polyreactivity
8,QVQLVESGGGLVQAGGSLRLSCAASGRTFRGYAMGWYRQAPGKERELVAAISSSGGRTYYADSVKGRFTISRDNAKNTVYLQMNSLKPEDTAVYYCAAAVTLSPAQYGYWGQGTQVTVSS,high polyreactivity
9,QVQLVESGGGLVQAGGSLRLSCAASGRTFRGYAMGWYRQAPGKERELVAAITSGGSTNYADSVKGRFTISRDHAKNSVYLQMNSLKPEDTAVDYCNRDTSKYGLWRYIYDYWGQGTQVTVSS,low polyreactivity
10,QVQLVESGGGLVQAGGSLRLSCAASGRTFRGYAMGWYRQAPGKERELVAAITSSGGRTYYADSVKGRFTISRDNAKNTVYLQMNSLKPEDTAVYYCAKDYYSPRGYDYWGQGTQVTVSS,high polyreactivity
11,QVQLVESGGGLVQAGGSLRLSCAASGRTFRGYSMGWYRQAPGKERELVAAISSSGGRTYYADSVKGRFTISRDNAKNTVYLQMNSLKPEDTAVYYCNAYYWSATWYFAAWDYYYWGQGTQVTVSS,high polyreactivity
12,QVQLVESGGGLVQAGGSLRLSCAASGRTFRHYAMGWYRQAPGKEREFVAAISRSGGSTRYADSVKGRFTISRDNAKNTVYLQMNSLKPEDTAVYYCAATSRSYNDYDYWGQGTQVTVSS,high polyreactivity
13,QVQLVESGGGLVQAGGSLRLSCAASGRTFRIYALGWYRQAPGTERELVATIDSGGSTNYADSVKGRFTISRDNAKNTVYFQMNSLKPEDTAVYYCNAEDKPWYYLAGQAEYDSWGQGTQVTVSS,low polyreactivity
14,QVQLVESGGGLVQAGGSLRLSCAASGRTFRIYAMGWYRQAPGKERELVAAISRSSTSTYYADSVKGRFTISRDNAKNTVYLQMNSLKPEDTAVYYCAAVVTVQYSQPYDHWGQGTQVTVSS,high polyreactivity
15,QVQLVESGGGLVQAGGSLRLSCAASGRTFRIYAMGWYRQAPGKERELVASISWSGGSTYYADSVKGRFTISRDNAKNTVYLQMNSLKPEDTAVYYCAADYPFIALYDYWGQGTQVTVSS,low polyreactivity
16,QVQLVESGGGLVQAGGSLRLSCAASGRTFRKKAMGWYRRAPGKERELVAAISASGTSTYYADSVKGRFTNSRDNAKISVYLQMISLKPEDTAVYYCAARSYGIYDYWGQGSQVTVSS,high polyreactivity
17,QVQLVESGGGLVQAGGSLRLSCAASGRTFRKYAMGWSRQAPGKERELVAAINRGGTTKYADSVKGRFTISRDNAKNTVYLQMNSLKPEDTAVYYCNAAYGGVFFYAYDYWGQGTQVTVSS,low polyreactivity
18,QVQLVESGGGLVQAGGSLRLSCAASGRTFRKYGMGWYRQAPGKERELVAAITRSGGSTYYADSVKGRFTISRDNAKHTVYLQMNSLKPEDTSVSYCARSPVVVGSFLSYDYWGQGTQVTVSS,high polyreactivity
19,QVQLVESGGGLVQAGGSLRLSCAASGRTFRLYALGWYRQAPGKERELVAAITRGGRTNYADSVTGRFTISRDNAKNTVYLQMNSLKPEDTAVYYCAARYVERHTDYYYWGQGTQVTVSS,low polyreactivity
20,QVQLVESGGGLVQAGGSLRLSCAASGRTFRLYAMGWYRQAPGKERELVAAISARGSSTYYADSVKGRFTISRDNAKNTVYLQMNSLKPEDTAVYYCAAKRSYPYGSGYWGQGTQVTVSS,high polyreactivity
21,QVQLVESGGGLVQAGGSLRLSCAASGRTFRLYAMGWYRQAPGKERELVASISRSVGSTYYADSVKGRFTISRDNAKNTVYLQMNSLKPVDTAVYYCAARSYIPGGWYGAYYYWGQGTQVTVSS,high polyreactivity
22,QVQLVESGGGLVQAGGSLRLSCAASGRTFRNNAMGWYRQAPGKERELVAAITSGGSTNYADSVKGRFTISRDNAKNTVYLQMNSLKPEDTAVYYCAKDFWYVTGGWSSGMDYWGQGTQVTVSS,low polyreactivity

row,Sequence,polyreactivity (PSR sort gate)
1,QVQLVESGGGLVQAGGSLRLSCAASGRTFRNYAMGWYRQAPGKERELVAAISASGGSTYYADSVKGRFTISRDNAKNTVYLQMNSLKPEDTAVYYCAARYQGFGYRKYDYWGQGTQVTVSS,high polyreactivity
2,QVQLVESGGGLVQAGGSLRLSCAASGRTFRPYALGGYRPAPGKERELVAVITSGGSTYYADSVKGRFTISRDNAKNTVYLQMNSLKPEDTAVYYCARVYRSYAWSGYDYWGQGTQVTVSS,high polyreactivity
3,QVQLVESGGGLVQAGGSLRLSCAASGRTFRPYAMGWYRQAPGKEREFVARITWSGGTTYYADSVKGRFTISRDNAKNTVYLQMNRLKPEDTAVYYCAARVSRQTPVISYNYWGQGTQVTVSS,low polyreactivity
4,QVQLVESGGGLVQAGGSLRLSCAASGRTFRPYAMGWYRQAPGKERELDAAIDSSGTSTYYADSVKGRFTISRDNAKNTVYLQMNSLKPEDTAVYYCAKAWPDHWFSRYDYWGQGTQVTVSS,low polyreactivity
5,QVQLVESGGGLVQAGGSLRLSCAASGRTFRPYAMGWYRQAPGKERELVAAIDSSGTSTYYADSVKGRFTISRDNAKNTVYLKMNSLKPEDTAVYYCAKAWPDHWYSRYDYWGQGTQVTVSS,low polyreactivity
6,QVQLVESGGGLVQAGGSLRLSCAASGRTFRRNAMGWYRQAPGKERELVAAISFSAGRTYYADSVKGRFTISRDNAKNTVYLQMNSLKPEDTAVYYCNALRQDTGHYPYDYWGQGTQVTVSS,low polyreactivity
7,QVQLVESGGGLVQAGGSLRLSCAASGRTFRRNAMGWYRQAPGKERELVAAISWSGSRTYYADSVKGRFTISRDNAKKTVYLQMNSLKPEDTAVYYCAAEVWSTQGSATVQYDYLGQGTQVTVSS,high polyreactivity
8,QVQLVESGGGLVQAGGSLRLSCAASGRTFRRNAMGWYRQAPGKERELVASITGTGSTTYYADSVKGRFTISRDNAKNTVYLQMNSLKPEDTAVYYCAASSKYQDYWGQGTQVTVSS,high polyreactivity
9,QVQLVESGGGLVQAGGSLRLSCAASGRTFRRYAMGWYRQAPGKERELVAAITGAGSTYYADSVKGRFTISRDNAKNTVYFQMNSLKPEDTAVYYCAATPDPPHSYEYWGQGTKVTVSS,low polyreactivity
10,QVQLVESGGGLVQAGGSLRLSCAASGRTFRRYAMGWYRQAPGKERELVAAITYRGGSTYYADSVKGRFTISRDNAKNTVYLQMNSLKPEDTAVYYCNKQGNGQLGTTQGRYDYWGQGTQVTVSS,high polyreactivity
11,QVQLVESGGGLVQAGGSLRLSCAASGRTFRRYAMGWYRQAPGKERELVAVISGGGTYYADSVKGRFTISRDNAKNTVYLQMNSLKPEDTAVYYCATDSYSSLYGYDYWGQGTQVTVSS,high polyreactivity
12,QVQLVESGGGLVQAGGSLRLSCAASGRTFRRYAMGWYRQAPGKERELVAVISRGGSTHYADSVKGRFTISRDNAKNTVYLQMNSLKPEDTAVYYCNAVVSVYTQDLDYWGQGTQVTVSS,high polyreactivity
13,QVQLVESGGGLVQAGGSLRLSCAASGRTFRRYVMGRYRQAPGKEMEMVARITTSGGNTYYADSVKGRFTISRDNAKITVYLQMNSMKPEVTAVYYCAADFLRTYKEYNLGYWGQGTQVTVSS,low polyreactivity
14,QVQLVESGGGLVQAGGSLRLSCAASGRTFRSYAMGWSRQAPGKGRELVAAISRSGGTTTYADSVKGRFTISRDNAKNTVYLQMNSLKPEDTAVYYCARGQNRYWQFHGAYDYWGQGTQVTVSS,high polyreactivity
15,QVQLVESGGGLVQAGGSLRLSCAASGRTFRSYDMGWYRQAPGKERELVAAISKRGGNTYYADSVKGRFTISRDNAKNTVYLQMNSLKPEDTAVYYCAKRVSGSPPTAGSLSDSWGQGTQVTVSS,high polyreactivity
16,QVQLVESGGGLVQAGGSLRLSCAASGRTFRTNAIGWYRQATGKERELVAAIRASTGSTYYADSVKGRFTISRDNAKNSVYLQMNSLKPEDTAFYYCAARLRRGLTATWYYYWGQGTQVTVSS,high polyreactivity
17,QVQLVESGGGLVQAGGSLRLSCAASGRTFRTNAMGWYRQAPGKERELVAAISTGGGIANYADSVKGRCTISRDNAKNTVYLQMNSLKPEDTAVYYCNADIYTWFQIGGYQYDYWGQGTQVTVSS,low polyreactivity
18,QVQLVESGGGLVQAGGSLRLSCAASGRTFRTNTMGWYRQAPGKERELVAAIRYIGGSTYYADSVKGRFTISRDNAKNTFYLLMNSLKPEDTAVYYCAAYRYGSRYGYEYWGQGTQVTVSS,high polyreactivity
19,QVQLVESGGGLVQAGGSLRLSCAASGRTFRVNAMGWYRQAPGKERELVAAITWRGGSTYYADSVKGRFTISRDNAKNTVYLQMNSLKPEDTAVYYCAARYSSSSRRQKSDYWGQGTQVTVSS,high polyreactivity
20,QVQLVESGGGLVQAGGSLRLSCAASGRTFRVYAMGWDRQAPGKERELVAAISGRGGSTYYADSVKGRFSISRDNAMNTVYLQMNSLKPEDTAVDYCAKSNPYLRLGEGNYWGQGTQVTVSS,high polyreactivity
21,QVQLVESGGGLVQAGGSLRLSCAASGRTFRVYAMGWYRQAPGKEREFVAAISYSGGRTNYADSVKGRFTISRDNAKNTVYLQMNSLKPEDTAVYYCARTKQEYTFGQFYLGDYWGQGTQVTVSS,low polyreactivity
